The assay has as its target SARS-CoV-2 S-protein S1 subunit (SARS-CoV-2). As to the kind of experiment: ELISA. On the technique in general: ELISA stands for enzyme-linked immunosorbent assay.

For “human ACE2 extracellular domain, wildtype, Fc-tagged dimeric form (from UniProt Q9BYF1-1 18-615) (Fc fusion)”, the 50% effective concentration (EC50) was determined as 10.4 nM.

The term EC50 denotes the concentration needed to bring the measured effect to its halfway point.

The record behind these values is publication PMC8041869.
